# Where “and” joins values, the source holds several entries; their conditions need not be identical. Equal entries are not always repeated.
# B1: pUL21-H6 (HSV-1 pUL21) (natural protein)
# chain: MELSYATTMHYRDVVFYVTTDRNRAYFVCGGCVYSVGRPCASQPGEIAKFGLVVRGTGPDDRVVANYVRSELRQRGLQDVRPIGEDEVFLDSVCLLNPNVSSELDVINTNDVEVLDECLAEYCTSLRTSPGVLISGLRVRAQDRIIELFEHPTIVNVSSHFVYTPSPYVFALAQAHLPRLPSSLEALVSGLFDGIPAPRQPLDAHNPRTDVVITGRRAPRPIAGSGAGSGGAGAKRATVSEFVQVKHIDRVGPAGVSPAPPPNNTDSSSLVPGAQDSAPPGPTLRELWWVFYAADRALEEPRADSGLTREEVRAVRGFREQAWKLFGSAGAPRAFIGAALGLSPLQKLAVYYYIIHRERRLSPFPALVRLVGRYTQRHGLYVPRPDDPVLADAINGLFRDALAAGTTAEQLLMFDLLPPKDVPVGSDVQADSTALLRFIESQRLAVPGGVISPEHVAYLGAFLSVLYAGRGRMSAATHTARLTGVTSLVLAVGDVDRLSAFDRGAAGAASRTRAAGYLDVLLTVRLARSQHGQSV
# notes: tegument protein pUL21 of herpes simplex virus 1, UniProt F8RG07; source: E. coli T7 Express lysY/Iq, purified (Ni-NTA, SEC); not shown: His6, C-terminal, kept
# B2: StrepII-CERTL^P (hyperphosphorylated StrepII-tagged CERTL) (natural protein, human, UniProt Q9Y5P4-1 1-624, looked up)
# chain: MSDNQSWNSSGSEEDPETESGPPVERCGVLSKWTNYIHGWQDRWVVLKNNALSYYKSEDETEYGCRGSICLSKAVITPHDFDECRFDISVNDSVWYLRAQDPDHRQQWIDAIEQHKTESGYGSESSLRRHGSMVSLVSGASGYSATSTSSFKKGHSLREKLAEMETFRDILCRQVDTLQKYFDACADAVSKDELQRDKVVEDDEDDFPTTRSDGDFLHSTNGNKEKLFPHVTPKGINGIDFKGEAITFKATTAGILATLSHCIELMVKREDSWQKRLDKETEKKRRTEEAYKNAMTELKKKSHFGGPDYEEGPNSLINEEEFFDAVEAALDRQDKIEEQSQSEKVRLHWPTSLPSGDAFSSVGTHRFVQKPYSRSSSMSSIDLVSASDDVHRFSSQVEEMVQNHMTYSLQDVGGDANWQLVVEEGEMKVYRREVEENGIVLDPLKATHAVKGVTGHEVCNYFWNVDVRNDWETTIENFHVVETLADNAIIIYQTHKRVWPASQRDVLYLSVIRKIPALTENDPETWIVCNFSVDHDSAPLNNRCVRAKINVAMICQTLVSPPEGNQEISRDNILCKITYVANVNPGGWAPASVLRAVAKREYPKFLKRFTSYVQEKTAGKPILF
# modifications: hyperphosphorylated (sites not given)
# notes: human CERTL, UniProt Q9Y5P4-1, synthetic gene; Trimer by SEC-MALS (observed 184.3 kDa, expected 215.7 kDa); not shown: StrepII, N-terminal, kept
# B3: StrepII-CERTL^S132A (natural protein, human, UniProt Q9Y5P4-1 1-624, looked up)
# chain: MSDNQSWNSSGSEEDPETESGPPVERCGVLSKWTNYIHGWQDRWVVLKNNALSYYKSEDETEYGCRGSICLSKAVITPHDFDECRFDISVNDSVWYLRAQDPDHRQQWIDAIEQHKTESGYGSESSLRRHGAMVSLVSGASGYSATSTSSFKKGHSLREKLAEMETFRDILCRQVDTLQKYFDACADAVSKDELQRDKVVEDDEDDFPTTRSDGDFLHSTNGNKEKLFPHVTPKGINGIDFKGEAITFKATTAGILATLSHCIELMVKREDSWQKRLDKETEKKRRTEEAYKNAMTELKKKSHFGGPDYEEGPNSLINEEEFFDAVEAALDRQDKIEEQSQSEKVRLHWPTSLPSGDAFSSVGTHRFVQKPYSRSSSMSSIDLVSASDDVHRFSSQVEEMVQNHMTYSLQDVGGDANWQLVVEEGEMKVYRREVEENGIVLDPLKATHAVKGVTGHEVCNYFWNVDVRNDWETTIENFHVVETLADNAIIIYQTHKRVWPASQRDVLYLSVIRKIPALTENDPETWIVCNFSVDHDSAPLNNRCVRAKINVAMICQTLVSPPEGNQEISRDNILCKITYVANVNPGGWAPASVLRAVAKREYPKFLKRFTSYVQEKTAGKPILF
# modifications: hypophosphorylated
# notes: human CERTL, UniProt Q9Y5P4-1, synthetic gene, S132A; Trimer by SEC-MALS (observed 199.2 kDa); also called constitutively hypophosphorylated form of CERTL; source: Freestyle 293F, stably transfected, doxycycline-induced, purified (StrepTrap HP, Superose 6 SEC); not shown: StrepII, N-terminal, kept
# B4: H6-pUL21C (domain or fragment)
# chain: QDSAPPGPTLRELWWVFYAADRALEEPRADSGLTREEVRAVRGFREQAWKLFGSAGAPRAFIGAALGLSPLQKLAVYYYIIHRERRLSPFPALVRLVGRYTQRHGLYVPRPDDPVLADAINGLFRDALAAGTTAEQLLMFDLLPPKDVPVGSDVQADSTALLRFIESQRLAVPGGVISPEHVAYLGAFLSVLYAGRGRMSAATHTARLTGVTSLVLAVGDVDRLSAFDRGAAGAASRTRAAGYLDVLLTVRLARSQHGQSV
# notes: HSV-1 pUL21 C-terminal domain, amino acids 275-535, UniProt F8RG07; Cloned in pOPTH; Monomer by SEC-MALS and SAXS; also called C-terminal domain of pUL21; source: E. coli T7 Express lysY/Iq, purified (Ni-NTA, SEC); not shown: MAH6, N-terminal, kept
# Legend:
# [1] = target: CERTL (CERT, long isoform) (UniProt Q9Y5P4); test: SEC-MALS of self-association; settings: reference: wild-type CERTL, hyperphosphorylated (CERTLP); sites S132
# [2] = target: T1, StrepII-CERTL^S132A (constitutively hypophosphorylated human CERTL) (human, UniProt Q9Y5P4-1 1-624, S132A); test: ITC; CERTL forms in the syringe titrated into pUL21 forms in the cell; 25 °C; 20 mM Tris pH 8.5, 500 mM NaCl, 0.5 mM TCEP; one-site binding model; single titrations; settings: both partners purified
# T1 construct: ceramide transport protein CERT, longer cytoplasmic isoform CERTL, human, UniProt Q9Y5P4-1, with S132A; source: Freestyle 293F cells, stably transfected, doxycycline-induced, purified (StrepTrap, SEC); not shown: StrepII, N-terminal, kept
# T1 sequence (looked up): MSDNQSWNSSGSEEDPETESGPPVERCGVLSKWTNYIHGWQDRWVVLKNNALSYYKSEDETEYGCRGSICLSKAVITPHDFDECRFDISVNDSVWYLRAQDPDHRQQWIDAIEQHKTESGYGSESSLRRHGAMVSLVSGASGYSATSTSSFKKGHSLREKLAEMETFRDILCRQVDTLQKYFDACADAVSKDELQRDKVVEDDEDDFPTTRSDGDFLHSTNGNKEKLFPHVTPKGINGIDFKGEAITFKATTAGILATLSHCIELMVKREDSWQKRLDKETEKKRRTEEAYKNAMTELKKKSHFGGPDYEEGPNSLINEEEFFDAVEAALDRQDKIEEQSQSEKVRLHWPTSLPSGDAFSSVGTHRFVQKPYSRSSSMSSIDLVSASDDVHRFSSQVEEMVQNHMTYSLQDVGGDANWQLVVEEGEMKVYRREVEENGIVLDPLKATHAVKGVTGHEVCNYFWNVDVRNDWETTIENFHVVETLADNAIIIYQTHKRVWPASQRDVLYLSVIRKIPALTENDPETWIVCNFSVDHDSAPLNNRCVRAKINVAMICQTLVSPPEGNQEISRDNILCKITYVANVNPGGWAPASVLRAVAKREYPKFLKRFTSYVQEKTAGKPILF
# [3] = target: T2, StrepII-CERTL^P (hyperphosphorylated human CERTL) (human, UniProt Q9Y5P4-1 1-624, hyperphosphorylated (CERTL^P); sites not given); test: as above; settings: both partners purified
# T2 construct: ceramide transport protein CERT, longer cytoplasmic isoform CERTL (with exon 11), human, UniProt Q9Y5P4-1; not shown: StrepII, N-terminal, kept
# T2 sequence (looked up): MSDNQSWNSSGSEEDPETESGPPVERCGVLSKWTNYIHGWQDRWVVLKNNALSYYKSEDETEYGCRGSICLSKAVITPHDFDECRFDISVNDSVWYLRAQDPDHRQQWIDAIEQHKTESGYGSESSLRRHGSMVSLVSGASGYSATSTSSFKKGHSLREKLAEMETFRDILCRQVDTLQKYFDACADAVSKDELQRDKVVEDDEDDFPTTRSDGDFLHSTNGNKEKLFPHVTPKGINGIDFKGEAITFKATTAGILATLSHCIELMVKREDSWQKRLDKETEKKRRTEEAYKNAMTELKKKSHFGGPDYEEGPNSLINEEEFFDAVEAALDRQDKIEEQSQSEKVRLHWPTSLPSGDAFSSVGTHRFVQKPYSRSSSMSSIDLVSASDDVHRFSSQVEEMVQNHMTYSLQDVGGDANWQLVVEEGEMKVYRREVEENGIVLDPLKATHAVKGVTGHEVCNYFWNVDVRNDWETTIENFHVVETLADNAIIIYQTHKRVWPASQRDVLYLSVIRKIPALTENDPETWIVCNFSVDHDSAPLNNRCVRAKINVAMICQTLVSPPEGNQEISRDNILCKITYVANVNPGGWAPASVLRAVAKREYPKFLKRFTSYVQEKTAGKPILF
# [4] = target: the molecule itself; test: SEC-MALS; Superose 6 increase 10/300 GL; 20 mM Tris pH 8.5, 500 mM NaCl, 0.5 mM TCEP; samples injected at 2 mg/ml
# [5] = target: T3, pUL21-H6 (herpes simplex virus 1 (HSV-1), UniProt F8RG07 1-535); test: ITC; 25 °C; 20 mM Tris pH 8.5, 500 mM NaCl, 0.5 mM TCEP; CERTL forms in the syringe titrated into pUL21 forms in the cell; one-site binding model; settings: both partners purified
# T3 construct: HSV-1 pUL21, UniProt F8RG07; some paragraphs print H6-pUL21; also called H6-pUL21; WT pUL21; source: E. coli T7 Express lysY/Iq, purified (Ni-NTA, SEC); not shown: His6, C-terminal, kept
# T3 sequence: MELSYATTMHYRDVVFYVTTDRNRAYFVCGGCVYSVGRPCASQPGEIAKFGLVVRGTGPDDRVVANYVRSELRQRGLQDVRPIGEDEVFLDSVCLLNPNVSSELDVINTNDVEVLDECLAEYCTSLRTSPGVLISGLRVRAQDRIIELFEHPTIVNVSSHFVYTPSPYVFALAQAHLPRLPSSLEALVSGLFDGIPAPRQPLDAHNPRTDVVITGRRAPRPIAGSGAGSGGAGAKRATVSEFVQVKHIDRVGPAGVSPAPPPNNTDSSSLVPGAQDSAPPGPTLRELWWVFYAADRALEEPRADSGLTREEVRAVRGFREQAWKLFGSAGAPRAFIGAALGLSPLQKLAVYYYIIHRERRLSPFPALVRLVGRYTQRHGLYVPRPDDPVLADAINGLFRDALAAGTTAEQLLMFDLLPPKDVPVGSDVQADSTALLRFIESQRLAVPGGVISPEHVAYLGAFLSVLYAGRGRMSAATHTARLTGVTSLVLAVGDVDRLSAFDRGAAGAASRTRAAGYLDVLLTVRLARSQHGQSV
# [6] = target: T4, H6-miniCERTL (human, UniProt Q9Y5P4-1 20-624, residues 20–131 plus 351–624 (MR residues 132 to 350 excluded)); test: as above; settings: both partners purified
# T4 construct: human CERTL, UniProt Q9Y5P4-1, residues 20-131 plus 351-624 (PH and STARTL domains joined by a retained 23 amino acid stretch of the middle region); Cloned into pOPTH; Monomer by SEC-MALS; source: E. coli T7 Express lysY/Iq, purified (Ni-NTA, SEC); not shown: MAH6, N-terminal, kept
# T4 sequence (looked up): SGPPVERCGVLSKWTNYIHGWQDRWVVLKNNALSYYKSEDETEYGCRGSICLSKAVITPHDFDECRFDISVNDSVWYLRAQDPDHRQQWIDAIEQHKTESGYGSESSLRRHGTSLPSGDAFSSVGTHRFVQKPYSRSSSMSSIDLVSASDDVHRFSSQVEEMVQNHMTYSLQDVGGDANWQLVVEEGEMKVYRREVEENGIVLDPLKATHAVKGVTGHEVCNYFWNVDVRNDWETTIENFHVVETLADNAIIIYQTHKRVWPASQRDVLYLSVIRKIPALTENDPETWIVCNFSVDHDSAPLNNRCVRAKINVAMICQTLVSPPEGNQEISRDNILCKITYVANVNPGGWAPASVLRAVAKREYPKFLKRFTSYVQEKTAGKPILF
Molecule,stoichiometry N [4],dH [5] [kcal/mol],stoichiometry N [5],further results
"CERTL (CERT, long isoform) (from UniProt Q9Y5P4) CERTL S132A (hypophosphorylated)",–,–,–,other: observed mass (expected trimer 215.7) [1]: same; reference 184.3
B1,–,–,–,Kd [2]: 460 nM and 824 nM; Kd [3]: 1080 nM and 554 nM and 684 nM
B2,~3,3.89,0.74,–
B3,~3,2.38,0.97,–
B4,–,–,–,Kd [6]: 4320 nM

# From paper PMC9668737, “Herpes simplex virus 1 protein pUL21 alters ceramide metabolism by activating the interorganelle transport protein CERT” (The Journal of Biological Chemistry, 2022)
